# Reference: patent US6399352B1, “Plant porphobilinogen synthase and fusion protein thereof” (Paradigm Genetics, Inc., priority 1999, dated 2002)
# Assay: Enzyme activity of plant thioredoxin-porphobilinogen synthase: PBG formation from ALA (EC 4.2.1.24)
# Assay type: biochemical
# Conditions: 37° C., 1 hour, Tricine buffer pH 7.9, 2.5 mM ALA, 5 mM MgCl2, 1.25 μg purified recombinant protein; Ehrlich's reagent, OD 555 nm
# Description: Enzyme activity is tested in accordance with EC 4.2.1.24 using the following assay principle: [drawing 1] The enzyme activity of plant thioredoxin-porphobilinogen synthase (T-PPS) is measured as porphobilinogen (PBG) formation from δ-aminolevulinic acid (Aminolevulinate or ALA). A typical reaction is as follows: the reaction is carried out at 37° C. for 1 hour in Tricine buffer pH 7.9 or other suitable biochemical buffer, 2.5 mM ALA, 5 mM MgCl2 and 1.25 μg of purified recombinant protein from E. coli expression system in a final assay volume of 100 μl. PBG is quantified spectrophotometrically after reaction with the 100 μl Ehrlich's reagent solution. Optical density is determined after 60 minutes at 555 nm.
substance,measurement,value
"plant thioredoxin-porphobilinogen synthase: fusion protein of thioredoxin and tomato plant porphobilinogen synthase, expressed in E. coli (SEQ ID NO: 2)",enzyme activity (conversion of ALA to PBG),active
